We go through 54 substances from the supplement of paper PMC12042874.

± gives the uncertainty stated by the source.

The data set can be described thus: amyloid nucleation score (Sup35N fusion, yeast selection) (log enrichment); library NNK3; higher = more nucleation; inactive = no reads after selection. The method in brief:
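Sup35N was fused to peptides of 20 random codons and expressed in psi-negative yeast, which were induced with 100 μM copper sulfate for 24 hours and then grown on medium lacking adenine and uracil for 7 days at 30°C. Plasmid inserts from input and output were sequenced on Illumina. The nucleation score is the DiMSum log enrichment of output over input reads, centred on the mode score of non-aggregating sequences. Sequences with under 100 input reads were left out, and random libraries had three technical output replicates.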
As for CWKQGLNRYLWW, the amyloid nucleation score was 0.752 ± 0.13.

In the case of VLIYLDRCRNFDEKGFHNFC, the amyloid nucleation score came to 0.448 ± 0.21.

For KFCGEH, the amyloid nucleation score result was “inactive”.

Regarding YIWLKGNIRRSQWLLSLPFM, the amyloid nucleation score result is “inactive”.

In the case of SPLSRTFTPTYAGDMLLNSS, the amyloid nucleation score entry is “inactive”.

RRSTQLKRQYKSL: the amyloid nucleation score result is “inactive”.

On to RLLKFASYFVKDSRYNPDCF, for which the amyloid nucleation score entry was “inactive”.

As for CLYPGRSWVTGAGITVWSLV, the amyloid nucleation score result was “inactive”.

Consider SFQSLTM, for which the amyloid nucleation score entry was “inactive”.

With ENYLKVCVASVCPWLLHVRS, the amyloid nucleation score was -0.079 ± 0.48.

In the case of TVMLWAWEGRWYVRFVSPDR, the amyloid nucleation score entry was “inactive”.

Take NKLFEDSQAETS: the amyloid nucleation score entry is “inactive”.

Turning to NGIVPLSHLFYIGDSVKWWG, the amyloid nucleation score entry is “inactive”.

Take RQCCCSLKHIVWQPLGLCRK: the amyloid nucleation score result is “inactive”.

Turning to IVTIFSFQYGWGFLCTRLNF, the amyloid nucleation score result is “inactive”.

On to TLRNGQMTIGYCSKGISEVG, for which the amyloid nucleation score entry is “inactive”.

Turning to DLAFGMSFDWT, the amyloid nucleation score entry is “inactive”.

Turning to NSLVGLVCKTGSSFTRNKVV, the amyloid nucleation score was -0.104 ± 0.75.

In the case of FLIIDAVLEPVGLLFFTKFS, the amyloid nucleation score result is “inactive”.

Consider EALTLTARR, for which the amyloid nucleation score result is “inactive”.

For the substance SLGAMYVRCDKSWR, the amyloid nucleation score result is “inactive”.

For the substance EGFWMNAPGGRISYSINWIA, the amyloid nucleation score entry was “inactive”.

Take WSISIGYFP: the amyloid nucleation score entry is “inactive”.

For the substance VDLRSLSPGYIDFTVISPLL, the amyloid nucleation score is -0.952 ± 0.83.

KCYLKSGLDNLVYDLD: the amyloid nucleation score entry was “inactive”.

The substance RHRQSPYIINSVVIFGNQGT yielded an amyloid nucleation score of 2.5 ± 0.067.

For the substance FVKKRLVKGKNFFIELFLMC, the amyloid nucleation score result is “inactive”.

As to GLLVTTPMLKLNYFNVLDLG, the amyloid nucleation score came out at 0.99 ± 0.1.

On to AGIRYTNYFSSMGSIGGDGV, for which the amyloid nucleation score entry was “inactive”.

Take ISSNVWARDIRNWLNVTGYC: the amyloid nucleation score entry is “inactive”.

Regarding HGRAYSRNT, the amyloid nucleation score entry is “inactive”.

IAGLSNNTTDGLLRISHRYL: the amyloid nucleation score result is “inactive”.

For WRVLFSILSVTAVWATYAGL, the amyloid nucleation score result is “inactive”.

Regarding LGFESCVHRGKIKAVVMTST, the amyloid nucleation score entry is “inactive”.

For RWNSISI, the amyloid nucleation score entry is “inactive”.

SGLDRWDAEVVSILWVKLTV registered an amyloid nucleation score of 1.44 ± 0.094.

Consider WQTKIGYSGRLFDRTLGDAK, for which the amyloid nucleation score result was “inactive”.

As for RCLEERH, the amyloid nucleation score result is “inactive”.

LNMKTV had an amyloid nucleation score of -0.702 ± 1.

On to WPSGFCYR, for which the amyloid nucleation score entry is “inactive”.

As to LDLNLRVRVLFKFTTGLTFF, the amyloid nucleation score entry was “inactive”.

In the case of HLGDGTA, the amyloid nucleation score result is “inactive”.

Regarding WCGEKVCCRAQMSLTIKSLL, the amyloid nucleation score entry was “inactive”.

In the case of FYYRESRQLRLWVYIGSIVY, the amyloid nucleation score entry is “inactive”.

For the substance CEYVNKLHTVGVHWGTGSRE, the amyloid nucleation score result was “inactive”.

Regarding RCYYMAMVMYTLLPLLRAET, the amyloid nucleation score is -0.074 ± 0.32.

As to YGMDIIWW, the amyloid nucleation score result is “inactive”.

For NDHPVNSWPVGYSADINQVL, the amyloid nucleation score result is “inactive”.

As for SYGQSCCQDTGLSRNALMQ, the amyloid nucleation score entry was “inactive”.

LFKYGALLCVEVQY: the amyloid nucleation score result was “inactive”.

GADKFSMLRVYGICRLGSAC came in with an amyloid nucleation score of -0.024 ± 0.93.

Consider IDAYPVWELITLFLFGLMLY, for which the amyloid nucleation score entry is “inactive”.

HWVWIGVCLYNDRRGTGICV returned an amyloid nucleation score of 1.15 ± 0.16.

Consider NVNVNAFKMSLELRAR, for which the amyloid nucleation score entry is “inactive”.
